Test results reported in US8455448B2, “Myostatin isoform” (Myostin Therapeutics Pty Ltd, priority 2004, dated 2013).

T1: myostatin (Bos taurus, UniProt O18836)
T1 sequence (O18836 267-375): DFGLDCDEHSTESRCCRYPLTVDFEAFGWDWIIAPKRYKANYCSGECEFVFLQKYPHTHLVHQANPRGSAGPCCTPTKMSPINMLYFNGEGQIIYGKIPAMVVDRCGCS


Target: T1, myostatin
Test: MSV/canonical myostatin competition in C2C12 proliferation assay
Assay type: cell-based, bovine
Conditions: 1.5 μg/ml Mstn
Experimental: Competition of roMSV65 with canonical myostatin was carried out with C2C12 murine myoblasts. Myoblasts were seeded in 96-well tissue culture plates (Nunc, Roskilde, Denmark) at a cell density of 1000 cells per well in 200 μl of Dulbecco's modified Eagle's medium (DMEM, Invitrogen, California) supplemented with foetal bovine serum (FBS, 10% v/v, Invitrogen), penicillin (1×10^5 IU/l, Sigma, St Louis, Mo., USA) and streptomycin (100 mg/l, Sigma) buffered with NaHCO3 containing phenol red (7.22 nmol/l) as a pH indicator, and incubated overnight at 37° C. with 5% CO2. The medium was replaced with DMEM 10% FBS test medium containing no added protein, 1.5 or 2.5 μg/ml recombinant myostatin alone and with combination of 1, 2, 4, 10, 20 molar ratio of roMSV65, and the same amounts of roMSV65 without myostatin in a semi-random arrangement of eight replicates (n=8) for each test medium. Plates were incubated at 37° C. with 5% CO2 for 72 hours, and then the medium was removed. […] The plates were gently shaken and the absorbance was measured at 655 nm using a microplate photometer (VersaMax, Molecular Devices, CA).
Competition of roMSV47 with canonical myostatin was carried out with C2C12 murine myoblasts. […] The plates were gently shaken and the absorbance was measured at 655 nm using a microplate photometer (VersaMax, Molecular Devices, CA). […]

restoring of myostatin inhibited proliferation (1:10 molar ratio of myostatin to MSV, 69 h, FIG. 11)	Molecule	overcoming myostatin-induced inhibition of proliferation (48 h, FIG. 9)
ineffective at restoring proliferation	roMSV47: 47 amino acid C-terminal mature ovine MSV fragment (SEQ ID NO: 50), recombinant from E. coli (IIFLEVYIQFCSILGEAVFKRQSKSIHFCQNFKIIACLCNTAAFRMK; Ovis aries)	
	roMSV65: 65 amino acid C-terminal peptide of ovine MSV (SEQ ID NO: 49) expressed as recombinant protein in E. coli (protein, Ovis aries) VHFYTPPYGQWIFHKERKIIFLEVYIQFCSILGEAVFKRQSKSIHFCQNFKIIACLCNTAAFRMK	overcame myostatin-induced inhibition of proliferation
